Data as given in patent publication US12018066 (TRIAD NATIONAL SECURITY, dated 2024).
Substitutions are numbered along the chain they refer to. Where “and” joins values, the source holds several entries; their conditions need not be identical. Identical values can stand only once. Like-named read-outs stand apart in the source and are kept apart here.

B1: R26 scFv (scFv)
scFv: SYELTQPPSVSVAPGQTATITCGGKNIESKSVHWYQQKPGQAPVLVVSDDTDRASGIPERFSGSNSGGAATLTISRVEAGDEADYYCQVWDSPSDHYVFGPGTKLTVLSGGSTITSYNVYYTKLSSSGTQVQLVESGGGVVQPGRSLRLSCAASGFTFSSYAMHWVRQAPGKGLEWVAVISYDGSNKYYADSVKGRFTISRDKAKNTLYLQMNSLRGEDTAVYYCARELSYYDSSGYLRGDWYFDLWGRGTLVTVSS
B2: G07 scFv (scFv)
scFv: QSVLIQPPSASGTPGQRVTISCSGSNSNFGSNSVSWYQQRPGTAPKLLIEGNNQRPSGVPERFSGSKSGTSASLAISGLQSEDEAEYSCASWDDSLNAFVFGPGTKLTVLSGGSAITSYNVYYTKLSSSGTQVQLVQSGAEVKKPGESLKISCKGSGYSFTSYWIGWVRQMPGKGLEWMGIIYPGDSDIRYSPSFQGQVTISADKSFSSAYLQWSSLKASDTAMYYCARLGATGAFDIWGQGTTVTVSS
B3: R04 scFv (scFv)
scFv: EIVMTQSPSSLSASVGDRVTITCQASQDISNYLNWCQQKPGKAPKLLIYDASNLETGVPSRFSGSGSGTGFTFTISSLQPEDFATYYCQQSYSTPYTFGQGTKVEIKSGGSTITSYNVNYTKLSSSGAQVQLQQSGPGLVKSSQTLSLTCAISGDSVSSNGAAWHWIRQSPSRGLEWLGRTYYRSGWYNDYAVSVKSRITINQDTSKNQFSLQLNSVTPEDTAVYFCAREGGGGRMDVWSQGTTVTVSS
B4: H01 scFv (scFv)
scFv: QPGLTQPPSVSLAPGQTARITCGGNNIGSKSVHWYQQKPGQAPVLVVYDDSDRPSGIPERFSGSNAGNTATLTISRVEAGDEADYYCQVWDSRSDQYVFGTRTKLTVLSGGSTITSYNVYYTKLSSSGAQVTLKESGPVLVKPTETLTLTCTVSGFSLSNARMGVSWIRQPPGKALEWLAHIFSNGEKSYSTSLKSRLTISKDTSKSQVVLTMTNMDPVDTATYYCARTLDYYDSSGYLVGGAFDIWGQGTMVTVSS
notes: also called H1
B5: H05 scFv (scFv)
scFv: SYVLTQPPSVSVAPGQTARITCGANNIGRISVHWYQQKPGQAPVLVVYDDSDRPSGIPERFSGSNFGNTATLTISRVEAGDEADYYCQVWDSYSDHVIFGGGTKLTVLSGGSTITSYNVYYTKLSSSGTQVQLVQSGAEVKKPGSSVKVSCKASGGTFSSYAISWVRQAPGQGLEWMGGIIPIFGTANYAQKFQGRVTITADESTSTAYMELSSLRSEDTAVYYCARSIFGVVIISHADGYYYGMDVWGQGTTVTVSS
notes: also called H5
B6: F07 IgG1 (antibody, V domains shown)
VH: QVQLVQSGAEVKKPGSSVRVSCKVSGYTFTGYYMHWVRQAPGQGLEWMGIINPSGGSTSYAQKFQGRVTMTRDTSTSTVYMELSSLRSEDTAVYYCARVRVGASDAFDIWGQGTMVTVSS
VL: SYVLTQPPSVSVAPGQTARITCGGNNIGSKSVHWYQQKPGQAPVLVVYDDSDRPSGIPERFSGSNSGNTATLIISRVEAGDEADYYCQVWDSSSVHYVFGTGTKLTVL
B7: H05 IgG1 (antibody, V domains shown)
VH: QVQLVQSGAEVKKPGSSVKVSCKASGGTFSSYAISWVRQAPGQGLEWMGGIIPIFGTANYAQKFQGRVTITADESTSTAYMELSSLRSEDTAVYYCARSIFGVVIISHADGYYYGMDVWGQGTTVTVSS
VL: B6 VL with G24A, S29R, K30I, S66F, I73T, S93Y, V95D, Y97V, V98I, T101G
notes: also called H5; HO5
B8: S01 scFv (scFv)
scFv: EIVMTQSPSSLSASVGDSVTITCQASQDISNYLNWYQQKPGKAPKLLIYDASNLETGVPSRFSGGGSGTDFTLTITSLQPEDIATYYCQQYDNFPPTFGPGTKVDIKSGGSTITSYNVYYTKLSSSDTQVQLVESGGGLVKPGGSLRLSCAASGFTVGSNYMSWVRQAPGKGLEWVSVIYSGGSTYYADSVKGRFTISRDNSKNTLYLQMNSLRAEDTAVYYCARGSSGAWYFDLWGRGTLVTVSS
notes: also called 501
B9: S01 IgG1 (antibody, V domains shown)
VH: QVQLVESGGGLVKPGGSLRLSCAASGFTVGSNYMSWVRQAPGKGLEWVSVIYSGGSTYYADSVKGRFTISRDNSKNTLYLQMNSLRAEDTAVYYCARGSSGAWYFDLWGRGTLVTVSS
VL: EIVMTQSPSSLSASVGDSVTITCQASQDISNYLNWYQQKPGKAPKLLIYDASNLETGVPSRFSGGGSGTDFTLTITSLQPEDIATYYCQQYDNFPPTFGPGTKVDIK
notes: also called 501

What was measured:
[1] = target: T1, SARS-CoV-2 spike protein receptor binding domain (RBD2) (SARS-CoV-2, UniProt P0DTC2 319-537)
[2] = target: T1, SARS-CoV-2 spike protein receptor …; experiment: flow cytometry, yeast-displayed scFv, titration of biotinylated antigen
[3] = target: T1, SARS-CoV-2 spike protein receptor …; remark: listed apart in the source
[4] = target: T1, SARS-CoV-2 spike protein receptor …; experiment: flow cytometry, yeast-displayed scFv
[5] = target: T1, SARS-CoV-2 spike protein receptor …; experiment: flow cytometry, yeast-expressed scFv
[6] = target: T1, SARS-CoV-2 spike protein receptor …; experiment: SPR
[7] = target: T1, SARS-CoV-2 spike protein receptor …; remark: listed apart in the source
[8] = target: SARS-CoV-2 spike protein on whole SARS-CoV-2 virus (SARS-CoV-2, UniProt P0DTC2 14-1273); experiment: cell-based or functional assay
[9] = target: T1, SARS-CoV-2 spike protein receptor …; experiment: SPR sandwich binning, ligand Anti-His
[10] = target: T1, SARS-CoV-2 spike protein receptor …; experiment: SPR sandwich binning, ligand B04
[11] = target: T1, SARS-CoV-2 spike protein receptor …; experiment: SPR sandwich binning, ligand E01
[12] = target: T1, SARS-CoV-2 spike protein receptor …; experiment: SPR sandwich binning, ligand E08
[13] = target: T1, SARS-CoV-2 spike protein receptor …; experiment: SPR sandwich binning, ligand F07
[14] = target: T1, SARS-CoV-2 spike protein receptor …; experiment: SPR sandwich binning, ligand G07
[15] = target: T1, SARS-CoV-2 spike protein receptor …; experiment: SPR sandwich binning, ligand H01
[16] = target: T1, SARS-CoV-2 spike protein receptor …; experiment: SPR sandwich binning, ligand H05
[17] = target: T1, SARS-CoV-2 spike protein receptor …; experiment: SPR sandwich binning, ligand S01
[18] = target: T1, SARS-CoV-2 spike protein receptor …; experiment: SPR sandwich binning, ligand NN54
[19] = target: T1, SARS-CoV-2 spike protein receptor …; experiment: SPR, immobilized antibody, RBD injected, 1:1 fit
[20] = target: T1, SARS-CoV-2 spike protein receptor …; experiment: SPR sandwich binning, ligand CR3022
[21] = target: T2, human ACE2 receptor on HEK cells (Human ACE2 293 cell line) (human, UniProt Q9BYF1 18-805); experiment: fluorescence microscopy, PE-labelled IgG on HEK-ACE2 cells without RBD2-sfGFP
T2 construct: whole, on cells; also called HEK-ACE2; ACE2 293 cells
T2 sequence (Q9BYF1 18-805): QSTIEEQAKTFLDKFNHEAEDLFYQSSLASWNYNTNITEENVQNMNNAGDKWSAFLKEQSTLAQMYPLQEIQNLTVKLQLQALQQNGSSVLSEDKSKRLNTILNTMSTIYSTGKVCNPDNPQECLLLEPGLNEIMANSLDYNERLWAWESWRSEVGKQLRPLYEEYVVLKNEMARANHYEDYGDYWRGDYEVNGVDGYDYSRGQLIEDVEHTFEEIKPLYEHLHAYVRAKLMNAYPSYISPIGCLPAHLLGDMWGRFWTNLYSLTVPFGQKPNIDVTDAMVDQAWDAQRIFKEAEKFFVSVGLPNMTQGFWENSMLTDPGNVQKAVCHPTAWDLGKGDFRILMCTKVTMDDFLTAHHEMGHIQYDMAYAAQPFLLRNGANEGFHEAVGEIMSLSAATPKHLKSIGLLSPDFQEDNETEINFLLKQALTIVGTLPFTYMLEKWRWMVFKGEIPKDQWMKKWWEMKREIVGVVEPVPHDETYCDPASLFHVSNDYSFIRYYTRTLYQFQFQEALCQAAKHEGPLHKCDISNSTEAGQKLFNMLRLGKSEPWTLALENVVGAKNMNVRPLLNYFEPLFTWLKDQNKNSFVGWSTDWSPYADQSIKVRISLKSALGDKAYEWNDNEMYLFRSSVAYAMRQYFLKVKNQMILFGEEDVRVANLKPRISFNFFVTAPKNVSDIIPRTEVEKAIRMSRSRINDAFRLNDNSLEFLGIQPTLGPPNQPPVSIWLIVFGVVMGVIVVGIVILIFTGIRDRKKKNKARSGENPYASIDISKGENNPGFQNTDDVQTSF

[22] = target: T1, SARS-CoV-2 spike protein receptor …; remark: listed apart in the source

Binder	Kd [1] [µM]	Kd [2] [µM]	Kd [3] [µM]	Kd [4] [µM]	Kd [6] [µM]	normalized analyte binding to RBD2 held by the immobilized ligand [9]	normalized analyte binding to RBD2 held by the immobilized ligand [10]	normalized analyte binding to RBD2 held by the immobilized ligand [11]	normalized analyte binding to RBD2 held by the immobilized ligand [12]	normalized analyte binding to RBD2 held by the immobilized ligand [13]	normalized analyte binding to RBD2 held by the immobilized ligand [15]	normalized analyte binding to RBD2 held by the immobilized ligand [16]	normalized analyte binding to RBD2 held by the immobilized ligand [17]	Kd [19] [µM]	normalized analyte binding to RBD2 held by the immobilized ligand [20]	also measured
B1	0.0653	0.0653	–	–	–	–	–	–	–	–	–	–	–	–	–	–
B2	–	0.0603	0.0604	0.0603	–	–	–	–	–	–	–	–	–	–	–	–
B3	0.293	0.293	–	0.293	–	–	–	–	–	–	–	–	–	–	–	Kd [5]: > 0.28 µM and < 0.421 µM and 0.423 µM
B4	–	0.0664	0.0664	0.0664	–	–	–	–	–	–	–	–	–	–	–	–
B5	–	0.0167	0.0167	0.0167	–	–	–	–	–	–	–	–	–	–	–	–
B6	–	–	–	–	0.3	1.48	-0.05	1.9	1.78	0.07	0.1	1.39	1.28	0.3	0.9	Kd [7]: 0.3 µM; NT50 (nM), half neutralization titer [8]: 45.2 nM; Nmax (%), neutralization maximum [8]: 74.7%; normalized analyte binding to RBD2 held by the immobilized ligand [14]: 0.14; normalized analyte binding to RBD2 held by the immobilized ligand [18]: 2.34; binding result [21]: no binding (tested: 1 ug/mL)
B7	–	–	–	–	0.051	1.35	1.75	1.81	-0.12	0.9	-0.1	-0.17	1.73	0.051	-0.15	Kd [7]: 0.046 µM; normalized analyte binding to RBD2 held by the immobilized ligand [14]: 0.9
B8	0.0448	0.0441	–	0.0441	–	–	–	–	–	–	–	–	–	–	–	–
B9	–	–	–	–	0.17	1	0.06	-0.13	1.79	0.48	-0.03	1.2	-0.03	0.17	1.39	Kd [22]: 0.174 µM; NT50 (nM), half neutralization titer [8]: 14.6 nM; Nmax (%), neutralization maximum [8]: 106%; normalized analyte binding to RBD2 held by the immobilized ligand [18]: 1.64; binding result [21]: no binding (tested: 1 ug/mL)
